experiment: yeast display, Sf9 membrane polyspecificity reagent, FACS + sequencing; frameworks hold sequencing errors
Method in brief: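 Synthetic nanobody libraries on Saccharomyces cerevisiae BJ5465 were galactose-induced for 36–48 hours, stained 1 hour at 4 °C with 10% biotinylated, detergent-solubilized Sf9 membrane reagent and enriched on streptavidin microbeads. FACS then separated cells into low and high (top ~1%) gates by anti-HA (expression) and streptavidin (reagent binding) fluorescence. Genes were colony-PCR amplified, MiSeq 2 × 250 sequenced and CDR-length filtered. A clone's polyreactivity label is that of its gate of origin.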

Sequence | polyreactivity (PSR sort gate)
QVQLVESGGGLVQAGGSLRLSCAASGLIFLYYAMGWYRQAPGKERELVAAISRRGGSTYYADSVKGRFTISRDNAKNTVYLQMNSLKPEDTAVYYCAAKYESYPGGIWTYYYWGQGTQVTVSS | high polyreactivity
QVQLVESGGGLVQAGGSLRLSCAASGLIFNLYAIGWNRQAPGKEREFVATITGIGGSTYYADSVKGRFTISRDNAMNTVYFQMNSLKPEDTAVYYCAADAWFLPYNYWGQGTQVTVSS | low polyreactivity
QVQLVESGGGLVQAGGSLRLSCAASGLIFNLYAMGWYRQAPGKEREFVATITGIGGSTYYADSVKGRFTISRDNANNTVYLQMTSLKPEDTAVYYCAADAWFLPYNYWGQGTQVTVSS | low polyreactivity
QVQLVESGGGLVQAGGSLRLSCAASGLIFPFYTMGWYRQAPGKERELVAAISYSGGSTYYADSVKGRFAISRDNAKNTVYLQMNSLKPEDTAVYYCAKSYRTTYHFWSGYDYWGQGTQVTVSS | low polyreactivity
QVQLVESGGGLVQAGGSLRLSCAASGLIFPKNAMGWYRQAPGKERELVAAISSSDSSTYADSVKGRFTISRDNAKNTVYLQMNSLKPEDTAVYYCAAASYNWLDWVTREYWGQGTQVTVSS | low polyreactivity
QVQLVESGGGLVQAGGSLRLSCAASGLIFPRNAMGWYRQAPGKERELVAVISRSGTSTYYADSVKGRFTISRDNAKNTVYLQMNSLKPEDTAVYYCAAAPSQVYRARFYYWGQGTQVTVSS | high polyreactivity
QVQLVESGGGLVQAGGSLRLSCAASGLIFPSYTMGWYRQAPGKDRELVAAITFSGDSTNYADSVKGRFTISRDNAKNTVYLQMNSLKPEDTAVYNCAASQVSDTTRFGYWGQGTQVTVSS | low polyreactivity
QVQLVESGGGLVQAGGSLRLSCAASGLIFPTNAMGWYRQAPGKERELVAAISSVGSTYYADSVKGRFTISRDNAKNTVYLQMNSLKPEDTAVYYCAADWTLDPSYGYYADDYWGQGTQVTVSS | low polyreactivity
QVQLVESGGGLVQAGGSLRLSCAASGLIFPVYDMGWYRQAPGKERELVAAITRSGDSTYYADSVKGRFTISRDNAKNTVYLQMNSLKPEDTAVYYCAAQPGTASYAGDGDSWGQGTQVTVSS | low polyreactivity
QVQLVESGGGLVQAGGSLRLSCAASGLIFPYYTMGWYRQAPGKEGELVAVINRGGSTSYADSVKGRFTISRDNAKNTFYLQMNSLKPEDTAVYYCAARKWRYYSHVIYDYWGQGTQVTVSS | high polyreactivity
QVQLVESGGGLVQAGGSLRLSCAASGLIFPYYVMGWYRQAPGKERELVAAISVSGGNTYYADSVKGRFTISRDNAKNTVYLQMNSLKPEDTAVYYCAADHYRGSYDYWGQGTQVTVSS | high polyreactivity
QVQLVESGGGLVQAGGSLRLSCAASGLIFPYYVMGWYRQAPGKERELVAAITWSGGRTYYADSVKGRFTISRDNAKNTVSLQMNSLKPEDTAVYYCAATYWTIDYWGQGTQVTVSS | low polyreactivity
QVQLVESGGGLVQAGGSLRLSCAASGLIFRGNDMGWYRQAPGKERELVAGINSSGSTNYADSVKGRFTISRDNAKNTVYLHMNSLKPEDTAVYYCAARAIVSFDYCGQGTQVTVSS | low polyreactivity
QVQLVESGGGLVQAGGSLRLSCAASGLIFRGYAMGWYIQAPGKERELVAAISKSGGSTYYADSVKGRFTISRDNAKNTVYLQMNSLKPEDTAVYYCNTDYDWKYFLSSQYDYWGQGTQVTVSS | high polyreactivity
QVQLVESGGGLVQAGGSLRLSCAASGLIFRGYAMGWYRQAPGKERELVAAISSIAGSTYYADSVKGRFTISRDNAKNTVYLQMNSLKPEDTAVYYCAARSRWTFRDYYYWGQGTQVTVSS | high polyreactivity
QVQLVESGGGLVQAGGSLRLSCAASGLIFRHYAMGWYRQAPGKERELVAAIDYSGGSTYYADSVKGRFTISRDNAKNSVYLQMNSLKPEDTAVYYCAADYFWLYYSEYGYWGQGTQVNVSS | low polyreactivity
